Assay results reported in US20210403580A1 (AJOU UNIVERSITY INDUSTRY ACADEMIC COOPERATION FOUNDATION, published 2021).

Target: T1, hIL-4Rα (Sino Biological) (human, UniProt P24394 26-232)
T1 construct: Bought protein immobilised on the CM5 chip for SPR
Experiment: SPR (Biacore 2000), hIL-4Rα (Sino Biological) immobilised to about 500 RU on CM5, IgG as analyte
Experimental: Specifically, hIL-4Rα (Sino Biological) was diluted to a concentration of […] in a 10 mM NaAc buffer (pH 4.0) and immobilized to about 500 response units (RU) on a CM5 sensor chip (GE Healthcare). […] After binding and dissociation analysis, regeneration of the CM5 chip was carried out by flushing the CM5 chip with a buffer solution (10 mM Glycine, pH 2.0) at a flow rate of 30 μl/min for 90 seconds. The sensorgram, obtained by binding for 90 seconds and dissociation for 900 seconds, was normalized and the value of a blank cell was subtracted therefrom to calculate the affinity.
In this manner, affinity may vary depending on the level of antigen immobilization.

B1: 4R25 (antibody, V domains shown)
VH: EVQLLESGGGLVQPGGSLRLSCAASGFTFSNYAMSWVRQAPGKGLEWVSWISPNSGNIYYADSVKGRFTISRDNSKNTLYLQMNSLRAEDTAVYYCARRPLSAAWSHSSYYNAMDVWGQGTLVTVSS
VL: QSVLTQPPSAPGTPGQRVTISCTGSSSNIGSNSVNWYQQLPGTAPKLLIYDDSHRPSGVPDRFSGSKSGTSASLAISGLRSEDEADYYCDAWDSSLSAYVFGGGTKLTVL
- Kd: 1.21 nM
- koff: 0.000177 s⁻¹
- kon: 147000 M⁻¹ s⁻¹
